One block for each binder: values may come before it.
Key:
[1] = target: T1, S. cerevisiae Dhh1 residues 30-425 (DEAD-box core, RecA1 and RecA2) (S. cerevisiae, UniProt P39517 30-425); assay: pull-down
T1 sequence: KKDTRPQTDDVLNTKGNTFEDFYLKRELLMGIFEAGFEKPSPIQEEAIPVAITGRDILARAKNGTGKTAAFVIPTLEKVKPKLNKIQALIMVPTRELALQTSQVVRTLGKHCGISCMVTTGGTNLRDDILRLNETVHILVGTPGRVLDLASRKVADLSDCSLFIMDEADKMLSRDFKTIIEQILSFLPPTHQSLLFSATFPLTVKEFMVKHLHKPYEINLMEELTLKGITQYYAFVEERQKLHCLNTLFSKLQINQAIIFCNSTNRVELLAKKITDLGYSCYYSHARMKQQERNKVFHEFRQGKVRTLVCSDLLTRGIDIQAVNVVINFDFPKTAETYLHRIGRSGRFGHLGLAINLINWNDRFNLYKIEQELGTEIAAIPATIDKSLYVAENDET

[2] = target: T2, S. cerevisiae Dhh1 residues 46-422 K234D, V238D (S. cerevisiae, UniProt P39517 46-422, K234D | V238D); assay: crystal structure
T2 sequence: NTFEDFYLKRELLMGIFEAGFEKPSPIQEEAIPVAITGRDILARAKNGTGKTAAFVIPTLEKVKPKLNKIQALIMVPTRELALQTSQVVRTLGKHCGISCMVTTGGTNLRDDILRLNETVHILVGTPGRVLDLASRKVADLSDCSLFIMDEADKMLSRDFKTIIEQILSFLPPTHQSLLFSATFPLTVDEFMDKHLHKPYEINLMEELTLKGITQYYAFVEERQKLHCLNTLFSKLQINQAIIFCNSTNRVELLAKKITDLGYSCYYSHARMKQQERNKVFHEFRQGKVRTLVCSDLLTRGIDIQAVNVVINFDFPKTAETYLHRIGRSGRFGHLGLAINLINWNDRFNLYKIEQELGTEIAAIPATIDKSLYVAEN

[3] = target: T3, S. cerevisiae Dhh1 residues 251-425 (RecA2 domain) (S. cerevisiae, UniProt P39517 251-425); assay: ITC
T3 sequence: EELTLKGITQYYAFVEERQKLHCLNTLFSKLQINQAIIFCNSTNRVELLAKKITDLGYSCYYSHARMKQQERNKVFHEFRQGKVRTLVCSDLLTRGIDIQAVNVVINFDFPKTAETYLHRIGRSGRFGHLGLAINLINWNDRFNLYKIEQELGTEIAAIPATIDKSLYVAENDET

[4] = target: T1, S. cerevisiae Dhh1 residues 30-425 …; assay: SEC
[5] = target: T1, S. cerevisiae Dhh1 residues 30-425 …; assay: ITC

B1: GST-tagged S. cerevisiae Pat1 residues 1-56 (domain or fragment)
chain: MSFFGLENSGNARDGPLDFEESYKGYGEHELEENDYLNDETFGDNVQVGTDFDFGN
- binding result [1]: binds

B3: His6-SUMO-tagged S. cerevisiae Pat1 residues 5-79 (domain or fragment)
chain: GLENSGNARDGPLDFEESYKGYGEHELEENDYLNDETFGDNVQVGTDFDFGNPHSSGSSGNAIGGNGVGATARSY
- Kd [3]: 32 nM

B4: GST-tagged S. cerevisiae Pat1 residues 1-114 (N-terminal domain) (domain or fragment)
chain: MSFFGLENSGNARDGPLDFEESYKGYGEHELEENDYLNDETFGDNVQVGTDFDFGNPHSSGSSGNAIGGNGVGATARSYVAATAEGISGPRTDGTAAAGPLDLKPMESLWSTAP
- binding result [1]: binds

Other lines, results leading:

- binding result [2]: binds
B2: S. cerevisiae Pat1 residues 5-79, as crystallized (domain or fragment)
chain: B3 chain

- binding result [2]: binds
Binder: QQNDYNQNRGEHIDWQDDDVSKIKQQEDFDFQRNLGMFNK (domain or fragment) [S. cerevisiae Edc3 residues 77-116, as crystallized]

- binding result [4]: binds
B5: S. cerevisiae Pat1 residues 1-114, as in the purified complex with Dhh1 30-425 used for limited proteolysis (domain or fragment)
chain: B4 chain

- Kd [5]: 200 nM
B6: S. cerevisiae Edc3 residues 77-158, as used for ITC (domain or fragment)
chain: QQNDYNQNRGEHIDWQDDDVSKIKQQEDFDFQRNLGMFNKKDVFAQLKQNDDILPENRLQGHNRKQTQLQQNNYQNDELVIP

Source: PMC3783180 (Nucleic Acids Research, 2013)
